# Biological target: Myomaker (MYMK) (mouse (endogenous in primary myoblasts)) (UniProt Q9D1N4)
# Assay: proximity ligation; Duolink PLA on primary mouse myoblasts fixed with 4% PFA, 24 h after DMSO (Ctrl) or ERKi; antibody pairs anti-TMEM8C + anti-CaMKII, or anti-CaMKII + anti-Rac1; mean fluorescent intensity normalized to nuclei number per field
# UniProt Q9D1N4, sequence (Q9D1N4 whole entry): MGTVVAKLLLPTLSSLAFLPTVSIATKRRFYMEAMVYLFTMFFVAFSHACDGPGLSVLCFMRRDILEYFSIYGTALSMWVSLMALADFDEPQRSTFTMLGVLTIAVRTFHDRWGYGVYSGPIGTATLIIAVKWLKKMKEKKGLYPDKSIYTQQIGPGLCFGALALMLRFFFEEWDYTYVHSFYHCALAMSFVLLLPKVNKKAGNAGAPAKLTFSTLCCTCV
substance,measurement,value
CaMKII (from UniProt Q6PHZ2 1-499) (natural protein),"fold increase of PLA signal mean fluorescent intensity, ERKi against DMSO control",2.9 fold

# — paper PMC8693863
